Data set [1] addresses T1, heavy chain of B-domain deleted human Factor VIII (A1-A2 domains) (human, UniProt P00451 20-1667, oligosaccharide observed linked to Asn 239).
T1 construct: Residues 17-43, 334-376 and 714-754 were not modeled; also called A1-a1-A2-a2
T1 sequence (heavy): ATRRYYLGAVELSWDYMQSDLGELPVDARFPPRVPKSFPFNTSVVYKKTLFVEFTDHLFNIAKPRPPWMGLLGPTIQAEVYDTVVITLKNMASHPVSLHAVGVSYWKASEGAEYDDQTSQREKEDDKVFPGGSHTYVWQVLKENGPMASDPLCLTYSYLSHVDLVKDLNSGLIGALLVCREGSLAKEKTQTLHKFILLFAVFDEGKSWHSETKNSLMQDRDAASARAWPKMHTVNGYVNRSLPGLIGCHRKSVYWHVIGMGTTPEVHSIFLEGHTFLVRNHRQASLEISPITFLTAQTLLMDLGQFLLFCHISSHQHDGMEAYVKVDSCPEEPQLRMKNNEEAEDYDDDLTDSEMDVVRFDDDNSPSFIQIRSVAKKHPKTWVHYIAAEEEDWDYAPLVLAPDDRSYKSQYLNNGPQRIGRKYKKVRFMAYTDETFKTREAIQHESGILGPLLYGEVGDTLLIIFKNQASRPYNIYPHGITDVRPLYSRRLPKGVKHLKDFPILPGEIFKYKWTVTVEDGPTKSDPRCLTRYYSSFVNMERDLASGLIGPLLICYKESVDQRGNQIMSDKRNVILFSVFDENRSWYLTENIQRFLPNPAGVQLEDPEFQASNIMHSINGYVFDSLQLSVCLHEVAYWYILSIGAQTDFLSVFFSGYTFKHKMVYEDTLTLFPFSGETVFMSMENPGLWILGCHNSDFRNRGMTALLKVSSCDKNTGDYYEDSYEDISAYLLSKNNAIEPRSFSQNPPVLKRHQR
The data set is described as follows: X-ray crystal structure. The text has this:
X-ray diffraction data of Factor VIII crystals were collected at the NE-CAT synchrotron beamline ID-24 of the Advanced Photon Source (APS) at Argonne National Laboratory. All xray data were processed using program HKL2000 (Otwinowski, Z. & Minor, W. (1997) in Methods Enzymol (Academic Press, New York), Vol. 276, pp. 307-326) (Table 1).
For structural determination using the molecular replacement method, a homology structure model of Factor VIII was constructed from the known primary sequence of Factor VIII (McCoy, A. J. (2007) Acta Crystallogr D Biol Crystallogr 63, 32-41). Using the template structures of Factor Vai (PDBID: […]) (Sandberg, H., Almstedt, A., Brandt, J., Castro, V. M., Gray, E., Holmquist, L., Lewin, M., Oswaldsson, U., Mikaelsson, M., Jankowski, M. A., Bond, M. & Scoble, H. A. (2001) Semin Hematol 38, 4-12) and ceruloplasmin (PDBID: 1KCW) (Adams, T. E., Hockin, M. F., Mann, K. G. & Everse, S. J. (2004) Proc Natl Acad Sci U SA 101, 8918-23), the structure of the A1 and A2 domains of Factor VIII were initially determined with AMoRe (Murshudov, G. N., Vagin, A. A. & Dodson, E. J. (1997) Acta Crystallogr D Biol Crystallogr 53, 240-55) using the structure of the A1 and A2 domains of the homology model. This yielded clear rotation function and translation function solutions. […]

Data set [2] deals with the molecule itself. The data set is described as follows: X-ray crystal structure, crystal contact.

B1: light chain of B-domain deleted human Factor VIII (A3-C1-C2 domains) (other)
light: EITRTTLQSDQEEIDYDDTISVEMKKEDFDIYDEDENQSPRSFQKKTRHYFIAAVERLWDYGMSSSPHVLRNRAQSGSVPQFKKVVFQEFTDGSFTQPLYRGELNEHLGLLGPYIRAEVEDNIMVTFRNQASRPYSFYSSLISYEEDQRQGAEPRKNFVKPNETKTYFWKVQHHMAPTKDEFDCKAWAYFSDVDLEKDVHSGLIGPLLVCHTNTLNPAHGRQVTVQEFALFLTIFDETKSWYFTENMERNCRAPCNIQMEDPTFKENYRFHAINGYIMDTLPGLVMAQDQRIRWYLLSMGSNENIHSIHFSGHVFTVRKKEEYKMALYNLYPGVFETVEMLPSKAGIWRVECLIGEHLHAGMSTLFLVYSNKCQTPLGMASGHIRDFQITASGQYGQWAPKLARLHYSGSINAWSTKEPFSWIKVDLLAPMIIHGIKTQGARQKFSSLYISQFIIMYSLDGKKWQTYRGNSTGTLMVFFGNVDSSGIKHNIFNPPIIARYIRLHPTHYSIRSTLRMELMGCDLNSCSMPLGMESKAISDAQITASSYFTNMFATWSPSKARLHLQGRSNAWRPQVNNPKEWLQVDFQKTMKVTGVTTQGVKSLLTSMYVKEFLISSSQDGHQWTLFFQNGKVKVFQGNQDSFTPVVNSLDPPLLTRYLRIHPQSWVHQIALRMEVLGCEAQDLY
modifications: oligosaccharides observed linked to Asn 1810 and Asn 2118
notes: Residues 1649-1690 and 1714-1724 were not modeled; also called a3-A3-C1-C2
In the case of B1, the binding result in data set [1] was “binds”.

B2: B-domain deleted human Factor VIII (other)
heavy: ATRRYYLGAVELSWDYMQSDLGELPVDARFPPRVPKSFPFNTSVVYKKTLFVEFTDHLFNIAKPRPPWMGLLGPTIQAEVYDTVVITLKNMASHPVSLHAVGVSYWKASEGAEYDDQTSQREKEDDKVFPGGSHTYVWQVLKENGPMASDPLCLTYSYLSHVDLVKDLNSGLIGALLVCREGSLAKEKTQTLHKFILLFAVFDEGKSWHSETKNSLMQDRDAASARAWPKMHTVNGYVNRSLPGLIGCHRKSVYWHVIGMGTTPEVHSIFLEGHTFLVRNHRQASLEISPITFLTAQTLLMDLGQFLLFCHISSHQHDGMEAYVKVDSCPEEPQLRMKNNEEAEDYDDDLTDSEMDVVRFDDDNSPSFIQIRSVAKKHPKTWVHYIAAEEEDWDYAPLVLAPDDRSYKSQYLNNGPQRIGRKYKKVRFMAYTDETFKTREAIQHESGILGPLLYGEVGDTLLIIFKNQASRPYNIYPHGITDVRPLYSRRLPKGVKHLKDFPILPGEIFKYKWTVTVEDGPTKSDPRCLTRYYSSFVNMERDLASGLIGPLLICYKESVDQRGNQIMSDKRNVILFSVFDENRSWYLTENIQRFLPNPAGVQLEDPEFQASNIMHSINGYVFDSLQLSVCLHEVAYWYILSIGAQTDFLSVFFSGYTFKHKMVYEDTLTLFPFSGETVFMSMENPGLWILGCHNSDFRNRGMTALLKVSSCDKNTGDYYEDSYEDISAYLLSKNNAIEPRSFSQNPPVLKRHQR
light: EITRTTLQSDQEEIDYDDTISVEMKKEDFDIYDEDENQSPRSFQKKTRHYFIAAVERLWDYGMSSSPHVLRNRAQSGSVPQFKKVVFQEFTDGSFTQPLYRGELNEHLGLLGPYIRAEVEDNIMVTFRNQASRPYSFYSSLISYEEDQRQGAEPRKNFVKPNETKTYFWKVQHHMAPTKDEFDCKAWAYFSDVDLEKDVHSGLIGPLLVCHTNTLNPAHGRQVTVQEFALFLTIFDETKSWYFTENMERNCRAPCNIQMEDPTFKENYRFHAINGYIMDTLPGLVMAQDQRIRWYLLSMGSNENIHSIHFSGHVFTVRKKEEYKMALYNLYPGVFETVEMLPSKAGIWRVECLIGEHLHAGMSTLFLVYSNKCQTPLGMASGHIRDFQITASGQYGQWAPKLARLHYSGSINAWSTKEPFSWIKVDLLAPMIIHGIKTQGARQKFSSLYISQFIIMYSLDGKKWQTYRGNSTGTLMVFFGNVDSSGIKHNIFNPPIIARYIRLHPTHYSIRSTLRMELMGCDLNSCSMPLGMESKAISDAQITASSYFTNMFATWSPSKARLHLQGRSNAWRPQVNNPKEWLQVDFQKTMKVTGVTTQGVKSLLTSMYVKEFLISSSQDGHQWTLFFQNGKVKVFQGNQDSFTPVVNSLDPPLLTRYLRIHPQSWVHQIALRMEVLGCEAQDLY
modifications: oligosaccharides observed linked to Asn 1810 and Asn 2118; oligosaccharide observed linked to Asn 239
notes: Expressed in CHO cells and crystallised; heterodimer of heavy and light chain with 2 Cu2+, 1 Ca2+ and three carbohydrate moieties; also called B-domain deleted recombinant Factor VIII (Wyeth); B domain-deleted FVIII
With B2, the binding result in data set [2] is given as “binds”.

Values taken from patent US20090271163A1 (published 2009).
